Tested on: Bacillus subtilis
Assay: cleaved RNA product abundance (RNA/gDNA barcode ratio) relative to median wild-type variant (ratio to wild type); higher = more accumulation of the downstream cleavage product
Summary of the method: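 The B. subtilis chromosome carried reporter mRNAs, truncated aprE or tetM, containing barcoded RNase Y cleavage-site windows mutagenized using oligos with a 9% error rate. After growth in LB at 37°C from OD600 0.0003 to 0.3, cleaved RNA was gel-selected, reverse transcribed and barcode-sequenced next to genomic DNA barcodes, with UMI collapsing. Each construct's RNA:gDNA barcode ratio was scaled to the median construct with the unmutated site. That scaled ratio is reported as cleaved product abundance.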

[1] = experiment (reporter, strain, medium): exp 8a: truncated aprE reporter, strain BJT201 with 2% xylose (RNase J1 expressed), cleavage site: glnRA (positions -5 to +31 mutated)
[2] = experiment (reporter, strain, medium): exp 2b: truncated aprE reporter, strain BJT200, cleavage site: cggR-gapA (positions -7 to +36 mutated)
[3] = experiment (reporter, strain, medium): exp 4a: truncated aprE reporter, strain BJT201 with 2% xylose (RNase J1 expressed), cleavage site: cggR-gapA (positions -7 to +36 mutated)
[4] = experiment (reporter, strain, medium): exp 6: tetM reporter, strain 168, cleavage site: cggR-gapA (positions -7 to +36 mutated)

Sequence | cleaved RNA product abundance [1] | cleaved RNA product abundance [3] | other results
CGACATGTCCCGCTTCTTTCATTAATCCGTTAGCTACTGTTTTGCTATATGCATTTACCTTTTAAGAGGAGGAAT | 0.368 | – | –
ACAGACGAAGGAGCCGCAAAGAAGTTATTAAGGGCAGAATAATCCCTCAATATAAATATCTCTCACTTATTTAAA | – | – | cleaved RNA product abundance [2]: 0.174
ACAGACGAAGGAGCCGCAAAGCAGTTATTAAGGGATGAATATTCCCTCAATATAAATATCTCTCACTTATTTAAA | – | 0.898 | cleaved RNA product abundance [2]: 0.832
ACAGACGAAGGAGCCGCAAAGAAATTATTAAGGGACGAATAATCCCTCAATATAAATATCTCTCACTTATTTAAA | – | 0.596 | cleaved RNA product abundance [2]: 0.392
ACAGACGAAGGAGCCGCAAAGTAGTTATTAAGGGATGAATAATACCTCAATATAAATATCTCTCACTTATTTAAA | – | 0.176 | cleaved RNA product abundance [2]: 0.155
CGACATGTCCCGCTTCTTTCATTAATCTGTTAGCAACTTTTTTGCTATATACATTTACCTTTTAAGAGGAGGAAT | 0.706 | – | –
ACAGACGAAGGAGCCGCAAAGAAGTTATTAAGGAATGAGTAATCCCTCAATATAAATATCTCTCACTTATTTAAA | – | 0.131 | cleaved RNA product abundance [2]: 0.119
ACAGACGAAGGAGCCGCAAATAAGTTATTAAGGGATAAATAATCCCTCAATATAAATATCTCTCACTTATTTAAA | – | 1.03 | –
CGACATGTCCCGCTTCTTTCATTAATCCGTTCGAAACTGTTTTGCTATATACATTTACCTTTTAAGAGGAGGAAT | 0.347 | – | –
CGACATGTCCCGCTTCTTTCATTAATCCGTTAACAACTATTTTGCTATATACATTTACCTTTTAAGAGGAGGAAT | 0.275 | – | –
ACAGACGAAGGAGCCGCATAGAAGTTATTAAGGGATGAATACTCCCTCAATATAAATATCTCTCACTTATTTAAA | – | 0.618 | –
CGACATGTCCCGCTTCTTTCATTAATCCGTTAGCAACTGTTTTTCTATATACATTTACGTTTTAAGAGGAGGAAT | 0.305 | – | –
ACAGACGAAGGAGCCGCAAAGAAGTTAATAAGGGAAGAATAATCCCTCAATATAAATATCTCTCACTTATTTAAA | – | 0.17 | cleaved RNA product abundance [2]: 0.135
ACAGACGAAGGAGCCGCAAAGAAGTTATTAAGGAATGAATAACCCCTCAATATAAATATCTCTCACTTATTTAAA | – | 0.101 | –
ACAGACGAAGGAGCCGCAAAGAAGTTGTTAAGGGATGAATAATCCCTCAATATAAATACCTCTCACTTATTTAAA | – | 0.182 | –
ACAGACGAAGGAGCCGCAAAGAAGTTATTAAGGGATGAATAATTCCTCAATATAAATTTCTCTCACTTATTTAAA | – | 0.625 | –
CGACATGTCCCGCTTCTTTCATTAATCCGTTAGCAACTGTCTTGCTATCTACATTTACCTTTTAAGAGGAGGAAT | 0.0931 | – | –
ACAGACGAAGGAGCCGCAAAGAAGTTATTAAGGGATGAATAATCCCTCAATATAAATGTCTCTCACTTATTTAAA | – | 0.636 | cleaved RNA product abundance [2]: 0.498; cleaved RNA product abundance [4]: 0.546
ACAGACGAAGGAGCCGCAACGAAGTTATTAAGGGATGAATAATCCCTCAATATAAATATCTCTCACTTATTTAAA | – | 0.915 | cleaved RNA product abundance [2]: 0.908; cleaved RNA product abundance [4]: 0.595
ACAGACGAAGGAGCCGCAAAGAAGTTATTAAGGAATGAATAATCCCTCATTATAAATATCTCTCACTTATTTAAA | – | 0.0579 | cleaved RNA product abundance [2]: 0.102
ACAGACGAAGGAGCCGCAAAGAAGTTATTAAGGGTTGAATAATACCTCAATATAAATATCTCTCACTTATTTAAA | – | 0.234 | cleaved RNA product abundance [2]: 0.146
CGACATGTCCCGCTTCTTTCATTAATCCGTTAGAAACTGTTTTGGTATATACATTTACCTTTTAAGAGGAGGAAT | 0.104 | – | –
CGACATGTCCCGCTTCTTTCATTAATCCTTTAGTAACTGTTTTGCTATATACATTTACCTTTTAAGAGGAGGAAT | 0.378 | – | –

Sequence | cleaved RNA product abundance [1] | cleaved RNA product abundance [3] | other results
ACAGACGAAGGAGCCGCAAAGAAGTTATTAAGGGATGAATAATCCCTGAAAATAAATATCTCTCACTTATTTAAA | – | 0.615 | –
ACAGACGAAGGAGCCGCAAAGAAGTTATTAAGGGATCAATAATCCCTCACTATAAATATCTCTCACTTATTTAAA | – | 0.224 | –
ACAGACGAAGGAGCCGCAAAGAAGTTATTAATGGATGGATAATCCCTCAATATAAATATCTCTCACTTATTTAAA | – | 0.143 | –
ACAGACGAAGGAGCCGCAAAGAAGTTATCAAATGATGAATAATCCCTCAATATAAATATCTCTCACTTATTTAAA | – | 0.123 | –
CGACATGTCCCGCTTCTTTCATTAATCCGTTAACAACTGTTTTTCTATATACATATACCTTTTAAGAGGAGGAAT | 0.304 | – | –
CGACATGTCCCGCTTCTTTCATTAATCCGTTAGCAATGGTTTTGCTATATACATTTACCTTTTAAGAGGAGGAAT | 1.08 | – | –
ACAGACGAAGGAGCCGCAAATAAGTTATAAAAGGATGAATAATCCCTCAATATAAATATCTCTCACTTATTTAAA | – | 0.211 | –
ACAGACGAAGGAGCCGCAAAGAAGTAAATAAGGGATGAATAATCCCTCAATATAAATATCTCTCACTTATTTAAA | – | 0.258 | cleaved RNA product abundance [2]: 0.151
ACAGACGAAGGAGCCGCAAAGAAGTAATTAAGGGATGAATATTCCCTCAATATAAATATCTCTCACTTATTTAAA | – | 0.293 | –
CGACATGTCCCGCTTCTTTCATTAATCAGTTAGCAACTGTTTTGCTATATACATATACCTTTTAAGAGGAGGAAT | 1.04 | – | –
CGACATGTCCCGCTTCTTTCATTAATCCGTTAGCAACTGTTTTGCTATATGCATTTACCTTTTAAGAGGAGGAAT | 0.239 | – | –
ACAGACGAAGGAGCCGCAAAGAATTTATTAAGGGATGAATAATCCCTCAATATACATATCTCTCACTTATTTAAA | – | 0.606 | –
ACAGACGAAGGAGCCGCAAAGAAGTTATTAAGGGATGAATAAACCATCAATATAAATATCTCTCACTTATTTAAA | – | 0.101 | cleaved RNA product abundance [2]: 0.125
CGACATGTCCCGCTTCTTTCATTAATCCCTTAGCAACTGTTTGGCTATATACATTTACCTTTTAAGAGGAGGAAT | 0.204 | – | –
CGACATGTCCCGCTTCTTTCATTAATCAGTTACCAACTGTTTTGCTATATACATTTACCTTTTAAGAGGAGGAAT | 0.267 | – | –
CGACATGTCCCGCTTCTTTCATTACTCCGTTAGTAACGGTTTTGCTATATACATTTACCTTTTAAGAGGAGGAAT | 0.281 | – | –
CGACATGTCCCGCTTCTTTCATTAATCCGTTAGCAACTGTTTTGCTAAATACATTTTCCTTTTAAGAGGAGGAAT | 0.232 | – | –
ACAGACGAAGGAGCCGCAAAGAAGTTATTAAGGGACGAATATTCCCTCAATATAAATATCTCTCACTTATTTAAA | – | 0.525 | –
ACAGACGAAGGAGCCGCAAAGAAGTTATTAAGGGATGAATAATCGCTCAATGTAAATATCTCTCACTTATTTAAA | – | 0.048 | –
ACAGACGAAGGAGCCGCAAAGAAGTTAATAAGGGATGAATAATACCTCAATATAAATATCTCTCACTTATTTAAA | – | 0.144 | cleaved RNA product abundance [2]: 0.0994
CGACATGTCCCGCTTCTTTCATTAATCCGTTATCAAATGTTTTGCTATATACATTTACCTTTTAAGAGGAGGAAT | 0.283 | – | –
ACAGACGAAGGAGCCGCAAAGAAGTTATTAAGGGATTAATAATCCCTCAATATAAATGTCTCTCACTTATTTAAA | – | 0.707 | –
ACAGACGAAGGAGCCGCAAAGAAGTTATTAAGGGATGAATAATCCCTTAAAATAAATATCTCTCACTTATTTAAA | – | 0.862 | –

— the supplement of paper PMC11780869
